Biological target: CCR6-NES-eLOV-TEVcs-FLAG-Gal4-V5 receiver construct, expressed in HEK293T cells

TRACC UAS-mCherry reporter by confocal imaging, HEK293T in trans: percent of receiver cells in contact with sender cells with reporter expression above background: 80.2%
Substance: CCL20 sender construct (CCL20-18 aa linker-3xHA-pre-mGRASP), expressed in HEK293T cells (ligand)

From article PMC8937215
